From the supplement of paper PMC10567573 come the findings set out here.

The chains are these.
B1: TRIM55 (parent)
chain: FQMEKIEHGYENMNHFTVNLNREE
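Also: lentivirally expressed fusions sorted by FACS into six bins by GFP to DsRed ratio, PSI derived from sequencing read proportions per bin multiplied by bin number.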

The variants in this series derive from B1. As to the kind of experiment: protein stability index of a GFP-peptide fusion (GPS, HEK-293T) (PSI 1-6); higher = more stable. Particulars: c terminus: a fixed tail appended.
As to FQMEMIEHGYENMNHFTVNLNREE [K5M], the protein stability index amounted to 2.83.

In the case of FQMEWIEHGYENMNHFTVNLNREE [K5W], the protein stability index is 2.41.

On to FQMELIEHGYENMNHFTVNLNREE [K5L], for which the protein stability index was found to be 2.6.

With FQMEYIEHGYENMNHFTVNLNREE [K5Y], the protein stability index was 2.16.

On to FQMEFIEHGYENMNHFTVNLNREE [K5F], for which the protein stability index stood at 1.7.

On to FQMEGIEHGYENMNHFTVNLNREE [K5G], for which the protein stability index was determined as 2.93.

On to FQMENIEHGYENMNHFTVNLNREE [K5N], for which the protein stability index was determined as 3.54.

Take FQMEDIEHGYENMNHFTVNLNREE [K5D]: the protein stability index is 4.14.

Consider FQMEQIEHGYENMNHFTVNLNREE [K5Q], for which the protein stability index was 3.51.

Take FQMEEIEHGYENMNHFTVNLNREE [K5E]: the protein stability index was determined as 4.2.

For the variant FQMEHIEHGYENMNHFTVNLNREE [K5H], the protein stability index worked out at 2.61.

Take FQMESIEHGYENMNHFTVNLNREE [K5S]: the protein stability index stood at 3.43.

For FQMETIEHGYENMNHFTVNLNREE [K5T], the protein stability index was 3.08.

In the case of FQMEAIEHGYENMNHFTVNLNREE [K5A], the protein stability index came out at 2.9.

Take FQMERIEHGYENMNHFTVNLNREE [K5R]: the protein stability index turned out to be 2.68.

FQMEVIEHGYENMNHFTVNLNREE [K5V]: the protein stability index stood at 2.49.

For the variant FQMEPIEHGYENMNHFTVNLNREE [K5P], the protein stability index stood at 3.55.

As for FQMECIEHGYENMNHFTVNLNREE [K5C], the protein stability index amounted to 3.14.

Take FQMEIIEHGYENMNHFTVNLNREE [K5I]: the protein stability index amounted to 2.24.

As to FQMEKIEHGYPNMNHFTVNLNREE [E11P], the protein stability index was 2.07.

Regarding FQMEKIEHGYVNMNHFTVNLNREE [E11V], the protein stability index was 1.97.

For FQMEKIEHGYKNMNHFTVNLNREE [E11K], the protein stability index came out at 2.42.

Consider FQMEKIEHGYANMNHFTVNLNREE [E11A], for which the protein stability index stood at 1.82.

For the variant FQMEKIEHGYTNMNHFTVNLNREE [E11T], the protein stability index turned out to be 2.42.

In the case of FQMEKIEHGYGNMNHFTVNLNREE [E11G], the protein stability index was determined as 2.14.

With FQMEKIEHGYDNMNHFTVNLNREE [E11D], the protein stability index turned out to be 2.55.

FQMEKIEHGYQNMNHFTVNLNREE [E11Q]: the protein stability index amounted to 2.18.

For the variant FQMEKIEHGYNNMNHFTVNLNREE [E11N], the protein stability index came to 2.16.

For the variant FQMEKIEHGYHNMNHFTVNLNREE [E11H], the protein stability index was found to be 1.95.

As to FQMEKIEHGYRNMNHFTVNLNREE [E11R], the protein stability index was 2.15.

For FQMEKIEHGYINMNHFTVNLNREE [E11I], the protein stability index is 2.31.

As to FQMEKIEHGYCNMNHFTVNLNREE [E11C], the protein stability index was determined as 1.56.

Turning to FQMEKIEHGYSNMNHFTVNLNREE [E11S], the protein stability index was determined as 2.59.

Consider FQMEKIEHGYWNMNHFTVNLNREE [E11W], for which the protein stability index was determined as 2.35.

Turning to FQMEKIEHGYFNMNHFTVNLNREE [E11F], the protein stability index was 2.04.

On to FQMEKIEHGYYNMNHFTVNLNREE [E11Y], for which the protein stability index stood at 2.08.

Take FQMEKIEHGYMNMNHFTVNLNREE [E11M]: the protein stability index came out at 1.98.

Take FQMEKIEHGYLNMNHFTVNLNREE [E11L]: the protein stability index is 1.81.

FQMEKIEHGYENWNHFTVNLNREE [M13W]: the protein stability index was found to be 2.12.

Consider FQMEKIEHGYENLNHFTVNLNREE [M13L], for which the protein stability index amounted to 2.61.

With FQMEKIEHGYENGNHFTVNLNREE [M13G], the protein stability index was 3.75.

For the variant FQMEKIEHGYENQNHFTVNLNREE [M13Q], the protein stability index was 3.33.

Take FQMEKIEHGYENCNHFTVNLNREE [M13C]: the protein stability index amounted to 2.93.

For the variant FQMEKIEHGYENANHFTVNLNREE [M13A], the protein stability index stood at 3.23.

In the case of FQMEKIEHGYENINHFTVNLNREE [M13I], the protein stability index turned out to be 2.52.

FQMEKIEHGYENYNHFTVNLNREE [M13Y]: the protein stability index was 2.38.

Turning to FQMEKIEHGYENTNHFTVNLNREE [M13T], the protein stability index was 3.36.

As to FQMEKIEHGYENPNHFTVNLNREE [M13P], the protein stability index was 3.51.

Regarding FQMEKIEHGYENENHFTVNLNREE [M13E], the protein stability index is 3.67.

Consider FQMEKIEHGYENRNHFTVNLNREE [M13R], for which the protein stability index was 2.68.

For the variant FQMEKIEHGYENHNHFTVNLNREE [M13H], the protein stability index was 3.13.

Consider FQMEKIEHGYENVNHFTVNLNREE [M13V], for which the protein stability index amounted to 2.46.

As to FQMEKIEHGYENSNHFTVNLNREE [M13S], the protein stability index is 3.04.

As to FQMEKIEHGYENKNHFTVNLNREE [M13K], the protein stability index came to 2.87.

Regarding FQMEKIEHGYENFNHFTVNLNREE [M13F], the protein stability index worked out at 2.82.

Turning to FQMEKIEHGYENNNHFTVNLNREE [M13N], the protein stability index was 3.81.

Take FQMEKIEHGYENDNHFTVNLNREE [M13D]: the protein stability index is 3.79.

Consider FQMEKIEHGIENMNHFTVNLNREE [Y10I], for which the protein stability index is 3.14.

As for FQMEKIEHGMENMNHFTVNLNREE [Y10M], the protein stability index worked out at 3.31.

On to FQMEKIEHGTENMNHFTVNLNREE [Y10T], for which the protein stability index turned out to be 3.1.

For the variant FQMEKIEHGFENMNHFTVNLNREE [Y10F], the protein stability index was determined as 3.02.

In the case of FQMEKIEHGRENMNHFTVNLNREE [Y10R], the protein stability index worked out at 3.18.

FQMEKIEHGVENMNHFTVNLNREE [Y10V]: the protein stability index stood at 3.35.

FQMEKIEHGSENMNHFTVNLNREE [Y10S]: the protein stability index is 3.44.

Consider FQMEKIEHGQENMNHFTVNLNREE [Y10Q], for which the protein stability index turned out to be 3.37.

As for FQMEKIEHGDENMNHFTVNLNREE [Y10D], the protein stability index was 3.31.

Turning to FQMEKIEHGLENMNHFTVNLNREE [Y10L], the protein stability index was determined as 3.08.

As to FQMEKIEHGKENMNHFTVNLNREE [Y10K], the protein stability index amounted to 2.82.

For FQMEKIEHGGENMNHFTVNLNREE [Y10G], the protein stability index was 3.31.

With FQMEKIEHGNENMNHFTVNLNREE [Y10N], the protein stability index worked out at 3.27.

On to FQMEKIEHGHENMNHFTVNLNREE [Y10H], for which the protein stability index was determined as 2.94.

In the case of FQMEKIEHGPENMNHFTVNLNREE [Y10P], the protein stability index came out at 3.63.

FQMEKIEHGWENMNHFTVNLNREE [Y10W]: the protein stability index came to 2.42.

In the case of FQMEKIEHGCENMNHFTVNLNREE [Y10C], the protein stability index came to 2.74.

With FQMEKIEHGEENMNHFTVNLNREE [Y10E], the protein stability index worked out at 3.74.

As to FQMEKIEHGAENMNHFTVNLNREE [Y10A], the protein stability index was determined as 3.55.

Regarding FQMEKIMHGYENMNHFTVNLNREE [E7M], the protein stability index turned out to be 2.46.

On to FQMEKIFHGYENMNHFTVNLNREE [E7F], for which the protein stability index was found to be 1.44.

Regarding FQMEKIYHGYENMNHFTVNLNREE [E7Y], the protein stability index worked out at 2.1.

Turning to FQMEKISHGYENMNHFTVNLNREE [E7S], the protein stability index is 2.34.

Turning to FQMEKINHGYENMNHFTVNLNREE [E7N], the protein stability index was 2.3.

Turning to FQMEKIPHGYENMNHFTVNLNREE [E7P], the protein stability index came to 2.6.

With FQMEKILHGYENMNHFTVNLNREE [E7L], the protein stability index worked out at 2.46.

With FQMEKIHHGYENMNHFTVNLNREE [E7H], the protein stability index came to 2.66.

As to FQMEKIDHGYENMNHFTVNLNREE [E7D], the protein stability index is 2.63.

In the case of FQMEKIAHGYENMNHFTVNLNREE [E7A], the protein stability index turned out to be 2.45.

Take FQMEKIQHGYENMNHFTVNLNREE [E7Q]: the protein stability index amounted to 2.73.

On to FQMEKIWHGYENMNHFTVNLNREE [E7W], for which the protein stability index turned out to be 2.65.

Consider FQMEKIVHGYENMNHFTVNLNREE [E7V], for which the protein stability index was 1.85.

For the variant FQMEKIKHGYENMNHFTVNLNREE [E7K], the protein stability index stood at 2.05.

On to FQMEKIIHGYENMNHFTVNLNREE [E7I], for which the protein stability index came to 2.42.

FQMEKIRHGYENMNHFTVNLNREE [E7R]: the protein stability index is 2.05.

FQMEKITHGYENMNHFTVNLNREE [E7T]: the protein stability index was 2.27.

For the variant FQMEKICHGYENMNHFTVNLNREE [E7C], the protein stability index worked out at 2.42.
